These results are taken from patent publication US7488588 (LICENTIA, dated 2009).

B1: human GFRα4, GPI-anchored isoform a (GFRα4a) (receptor)
chain: VGGNRCVDAAEACTADARCQRLRSEYVAQCLGRAAQGGCPRARCRRALRRFFARGPPALTHALLFCPCAGPACAERRRQTFVPSCAFSGPGPAPPSCLEPLNFCERSRVCRPRLLAFQVSCTPAPSAPDGCLLDQGARCLRAYAGLVGTAVTPNYVDNVSARVAPWCDCGASGNRREDCEAFRGLFTRNRCLDGAIQAFASGWPPVLLDQLNPQGDPEHSLLQVSSTG
modifications: GPI anchor (released by PI-PLC)
notes: Expressed from full-length GFRA4a cDNA (pCR3.1) in mouse Neuro-2a cells (endogenous Ret), in CHO cells (no Ret) or microinjected into mouse SCG neurons; also called hGFRα4; GFRA4a
B2: human persephin (PSPN) (ligand, UniProt O60542 61-156, looked up)
chain: ALSGPCQLWSLTLSVAELGLGYASEEKVIFRYCAGSCPRGARTQHGLALARLQGQGRAHGGPCCRPTRYTDVAFLDDRHRWQRLPQLSAAACGCGG
notes: Cross-linking gels show monomer (approx. 14-16 kDa) and dimer (32 kDa) bands; also called unlabeled PSPN

Assay [1] concerns the target T1, human neurturin (NRTN) (human, UniProt Q99748 96-197).
T1 sequence (looked up): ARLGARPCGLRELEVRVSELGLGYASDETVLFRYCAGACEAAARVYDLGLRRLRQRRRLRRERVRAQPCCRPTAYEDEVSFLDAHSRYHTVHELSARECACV
The assay is described as follows: displacement of 0.9 nM [125I]PSPN from GFRA4a-transfected Neuro-2a cells. As for the experimental part:
(§1) J. Milbrandt and E. M. Johnson, Jr.). […] was calculated using Cheng-Prusoff equation (McGonigle, et al., 1994).

Assay [2] addresses T2, rat GDNF (glial cell line-derived neurotrophic factor) (rat, UniProt Q07731 78-211).
T2 sequence (looked up): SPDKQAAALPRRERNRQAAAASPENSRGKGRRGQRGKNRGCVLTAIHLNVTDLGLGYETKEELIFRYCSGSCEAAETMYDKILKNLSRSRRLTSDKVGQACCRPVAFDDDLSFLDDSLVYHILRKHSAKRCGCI
The description is as above. As for the experimental part: as §1

For assay [3], the target named is B2. The assay is described as follows: displacement of [125I]PSPN from GFRA4a-transfected Neuro-2a cells; KD calculated using Cheng-Prusoff equation. As for the experimental part: as §1
The target in assay [4] is B1. The assay is described as follows: displacement of 0.9 nM [125I]PSPN by unlabeled PSPN from GFRA4a-transfected Neuro-2a cells (endogenous Ret), 4 hrs on ice. The protocol: as §1

As for B1, the binding result in assay [1] is given as “no binding (tested: up to 200 nM)”; in assay [2] it was “no binding (tested: up to 300 nM)”. Further, the Kd in assay [3] is ~0.1 nM.

As for B2, in assay [4], the IC50 was 1 nM.
